Measurements taken from PMC4083444 (Nature Communications, 2014).

Molecular target: the molecule itself
Test: crystal structure

Protein | binding result
TmCdsA S200C/S223C double-cysteine mutant (enzyme, Thermotoga maritima, UniProt Q9X1B7 1-270, looked up, mercury labels (CH3HgCl) bound to the endogenous and engineered Cys residues in the crystal) MDDLKTRVITASVVAPFVVLCFVSYESLIGLVSAILILAGYELITLEMKERDARFFYVILLALYPVLYGLVFEEPTQPLSILFITGVVFSLITDKDPSQVFKTVAAFSIALIYVTFFLSFFLPIYRDFGAANALLVLTSTWVFDSFAYFTGLKFGRTRISPRYSPRKSLEGVIGGFLGVVIYTFLYRLVVNDLLSVNVICFRTFLPFAATVAIMDTFGDIFECALKRHYGVKDSGKTLPGHGGMLDRIDGLLFVAPVSYIVFKILEGVVR | binds
TmCdsA S200C/S258C double-cysteine mutant (enzyme, Thermotoga maritima, UniProt Q9X1B7 1-270, looked up) MDDLKTRVITASVVAPFVVLCFVSYESLIGLVSAILILAGYELITLEMKERDARFFYVILLALYPVLYGLVFEEPTQPLSILFITGVVFSLITDKDPSQVFKTVAAFSIALIYVTFFLSFFLPIYRDFGAANALLVLTSTWVFDSFAYFTGLKFGRTRISPRYSPRKSLEGVIGGFLGVVIYTFLYRLVVNDLLSVNVICFRTFLPFAATVAIMDTFGDIFESALKRHYGVKDSGKTLPGHGGMLDRIDGLLFVAPVCYIVFKILEGVVR | binds
